Legend:
[1] = target: T1, [Ala1,Gly2]hGLP-2(1-33)
T1 chain: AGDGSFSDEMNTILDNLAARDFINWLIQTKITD

[2] = target: T2, [Aib2]hGLP-2(1-33)
T2 chain: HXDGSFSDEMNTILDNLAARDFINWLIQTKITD

[3] = target: T3, [Pen2]hGLP-2(1-33)
T3 chain: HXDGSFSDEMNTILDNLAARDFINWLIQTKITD

[4] = target: T4, hGLP-2(1-33)
T4 chain: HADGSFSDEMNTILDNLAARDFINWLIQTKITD

[5] = target: T5, [Met2]hGLP-2(1-33)
T5 chain: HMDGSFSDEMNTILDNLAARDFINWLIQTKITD

[6] = target: T6, Ac-ratGLP-2(1-33)
T6 chain: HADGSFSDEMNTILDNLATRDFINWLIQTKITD

[7] = target: T7, [Gly2]ratGLP-2(1-33)
T7 chain: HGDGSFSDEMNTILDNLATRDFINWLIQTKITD

[8] = target: T8, [Arg30]hGLP-2(1-33)
T8 chain: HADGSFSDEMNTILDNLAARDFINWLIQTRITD

[9] = target: T9, [Asn2]hGLP-2(1-33)
T9 chain: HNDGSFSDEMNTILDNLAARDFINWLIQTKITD

[10] = target: T10, [DAla2]ratGLP-2(1-33)
T10 chain: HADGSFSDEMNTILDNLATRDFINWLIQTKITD

[11] = target: T11, [Gln2]hGLP-2(1-33)
T11 chain: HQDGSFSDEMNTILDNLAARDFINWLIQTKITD

[12] = target: T12, [Tyr2]hGLP-2(1-33)
T12 chain: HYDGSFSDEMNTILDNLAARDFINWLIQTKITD

[13] = target: T13, [Phe25]hGLP-2(1-33)
T13 chain: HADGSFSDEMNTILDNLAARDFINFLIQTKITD

[14] = target: T14, [His2]hGLP-2(1-33)
T14 chain: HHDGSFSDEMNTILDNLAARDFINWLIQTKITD

[15] = target: T15, [Gly2]hGLP-2(1-33)
T15 chain: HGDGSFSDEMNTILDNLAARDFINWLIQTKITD

[16] = target: T16, [Gly2,Ala3]hGLP-2(1-33)
T16 chain: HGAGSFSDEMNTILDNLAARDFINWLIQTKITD

[17] = target: T17, [Asp2]hGLP-2(1-33)
T17 chain: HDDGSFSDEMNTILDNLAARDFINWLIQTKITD

[18] = target: T18, [Ile2]hGLP-2(1-33)
T18 chain: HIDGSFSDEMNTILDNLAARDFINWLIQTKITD

[19] = target: T19, [Pro2]hGLP-2(1-33)
T19 chain: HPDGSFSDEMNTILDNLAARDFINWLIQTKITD

[20] = target: T20, [Glu3]ratGLP-2(1-33)
T20 chain: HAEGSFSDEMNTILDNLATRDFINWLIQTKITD

[21] = target: T21, [Ala5, Ala7]hGLP-2(1-33)
T21 chain: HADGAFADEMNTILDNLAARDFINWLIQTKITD

[22] = target: T22, [Ser2,Gln3]hGLP-2(1-33)
T22 chain: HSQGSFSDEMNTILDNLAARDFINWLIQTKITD

[23] = target: T23, [Asp1]hGLP-2(1-33)
T23 chain: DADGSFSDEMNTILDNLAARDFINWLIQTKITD

[24] = target: T24, [Glu33]hGLP-2(1-33)
T24 chain: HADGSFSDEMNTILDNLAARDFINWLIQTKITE

[25] = target: T25, [Ala4]ratGLP-2(1-33)
T25 chain: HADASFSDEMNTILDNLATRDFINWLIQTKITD

B1: human placental DPP-IV (Calbiochem, La Jolla, Calif., cat. #317624) (protein)
chain: MKTPWKVLLGLLGAAALVTIITVPVVLLNKGTDDATADSRKTYTLTDYLKNTYRLKLYSLRWISDHEYLYKQENNILVFNAEYGNSSVFLENSTFDEFGHSINDYSISPDGQFILLEYNYVKQWRHSYTASYDIYDLNKRQLITEERIPNNTQWVTWSPVGHKLAYVWNNDIYVKIEPNLPSYRITWTGKEDIIYNGITDWVYEEEVFSAYSALWWSPNGTFLAYAQFNDTEVPLIEYSFYSDESLQYPKTVRVPYPKAGAVNPTVKFFVVNTDSLSSVTNATSIQITAPASMLIGDHYLCDVTWATQERISLQWLRRIQNYSVMDICDYDESSGRWNCLVARQHIEMSTTGWVGRFRPSEPHFTLDGNSFYKIISNEEGYRHICYFQIDKKDCTFITKGTWEVIGIEALTSDYLYYISNEYKGMPGGRNLYKIQLSDYTKVTCLSCELNPERCQYYSVSFSKEAKYYQLRCSGPGLPLYTLHSSVNDKGLRVLEDNSALDKMLQNVQMPSKKLDFIILNETKFWYQMILPPHFDKSKKYPLLLDVYAGPCSQKADTVFRLNWATYLASTENIIVASFDGRGSGYQGDKIMHAINRRLGTFEVEDQIEAARQFSKMGFVDNKRIAIWGWSYGGYVTSMVLGSGSGVFKCGIAVAPVSRWEYYDSVYTERYMGLPTPEDNLDHYRNSTVMSRAENFKQVEYLLIHGTADDNVHFQQSAQISKALVDVGVDFQAMWYTDEDHGIASSTAHQHIYTHMSHFIKQCFSLP
- % Cleaved by DPP-IV [1]: 0%
- % Cleaved by DPP-IV [2]: 0%
- % Cleaved by DPP-IV [3]: 20%
- % Cleaved by DPP-IV [4]: 60%
- % Cleaved by DPP-IV [5]: 0%
- % Cleaved by DPP-IV [6]: 0%
- % Cleaved by DPP-IV [7]: 0%
- extent of cleavage after 24 hour incubation (RP-HPLC) [7]: No cleavage products were detected
- % Cleaved by DPP-IV [8]: 59%
- % Cleaved by DPP-IV [9]: 0%
- % Cleaved by DPP-IV [10]: 0%
- extent of cleavage after 24 hour incubation (RP-HPLC) [10]: No cleavage products were detected
- % Cleaved by DPP-IV [11]: 0%
- % Cleaved by DPP-IV [12]: 0%
- % Cleaved by DPP-IV [13]: 54%
- % Cleaved by DPP-IV [14]: 0%
- % Cleaved by DPP-IV [15]: 0%
- % Cleaved by DPP-IV [16]: 0%
- % Cleaved by DPP-IV [17]: 0%
- % Cleaved by DPP-IV [18]: 0%
- % Cleaved by DPP-IV [19]: 16%
- % Cleaved by DPP-IV [20]: 50%
- % Cleaved by DPP-IV [21]: 77%
- % Cleaved by DPP-IV [22]: 0%
- % Cleaved by DPP-IV [23]: 0%
- % Cleaved by DPP-IV [24]: 55%
- % Cleaved by DPP-IV [25]: 72%
